In patent US20120115202A1:

Target: PsaJF mutant PSI from Synechocystis sp. PCC 6803 (Synechocystis sp. PCC 6803) (UniProt Q55329)
Assay: cell-based or functional assay

- rate of electron donation (light-induced cytochrome c oxidation, absorbance difference 550-540 nm) (fold faster than to the wild-type PSI): > 5
Substance: horse heart cytochrome c (from UniProt P00004 2-105)
